Source: paper PMC6756063, “TRiC/CCT chaperonins are essential for organ growth by interacting with insulin/TOR signaling in Drosophila” (Oncogene, 2019)

Target: T1, GST-CCT4 (Drosophila, UniProt Q9VK69 1-533)
T1 construct: CCT4, Drosophila; source: E. coli BL21 (IPTG-inducible), purified using a standard method
T1 sequence (looked up): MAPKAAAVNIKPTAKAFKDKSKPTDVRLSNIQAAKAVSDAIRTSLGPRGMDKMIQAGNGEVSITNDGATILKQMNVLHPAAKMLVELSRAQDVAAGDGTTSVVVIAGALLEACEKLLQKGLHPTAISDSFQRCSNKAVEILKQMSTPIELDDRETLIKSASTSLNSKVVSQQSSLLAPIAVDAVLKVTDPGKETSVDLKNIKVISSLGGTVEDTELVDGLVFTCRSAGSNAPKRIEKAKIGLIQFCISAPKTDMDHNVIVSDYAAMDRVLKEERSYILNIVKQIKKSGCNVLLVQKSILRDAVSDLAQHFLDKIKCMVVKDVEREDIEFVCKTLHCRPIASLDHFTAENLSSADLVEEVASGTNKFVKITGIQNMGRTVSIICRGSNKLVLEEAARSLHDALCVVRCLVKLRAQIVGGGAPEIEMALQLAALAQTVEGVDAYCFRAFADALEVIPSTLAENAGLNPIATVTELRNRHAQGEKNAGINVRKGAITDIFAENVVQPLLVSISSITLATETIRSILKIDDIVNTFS
Assay: pull-down; MBP-pulldown of MBP-tagged bait with GST-CCT4; pulldown buffer 20 mM Tris pH 7.5, 150 mM NaCl, 0.5 mM EDTA, 10% glycerol, 0.1% Triton X-100, 1 mM DTT; blots with anti-MBP and anti-GST
Settings: both partners purified

- binding result: binds
B1: MBP-Rheb (natural protein, Drosophila, UniProt Q9VND8 1-182, looked up)
chain: MPTKERHIAMMGYRSVGKSSLCIQFVEGQFVDSYDPTIENTFTKIERVKSQDYIVKLIDTAGQDEYSIFPVQYSMDYHGYVLVYSITSQKSFEVVKIIYEKLLDVMGKKYVPVVLVGNKIDLHQERTVSTEEGKKLAESWRAAFLETSAKQNESVGDIFHQLLILIENENGNPQEKSGCLVS
notes: also called full-length Rheb; source: E. coli BL21 (IPTG-inducible), purified using a standard method
